Among the data in article PMC4502523 are Km values, retold here.

The subject of data set [1] is CC(N)Cc1ccc(Cl)cc1. Description: cells, lysate or membranes.
Data set [2] relates to CSc1ccc(CC(C)N)cc1. Put plainly: cells, lysate or membranes.

As usually defined, the Km is the concentration of substrate that gives half-maximal velocity. In the case of human SERT (hSERT) (Homo sapiens), the Km in data set [1] stood at 3.3 ± 0.9 µM; in data set [2] it was 6.1 ± 2.3 µM.
